Test results: patent US20240327530A1 (ICHNOS SCIENCES, published 2024)

B1: Anti-IL-1RAP-C3-A3 mmIgG2a LALA (antibody, V domains shown)
VH: EVQLLESGGGLVQPGGSLRLSCAASGFIFSHYGMSWVRQAPGKGLEWVSAISYDGEGTLYADSVKGRFTISRDNSKNTLYLQMNSLRAEDTAVYYCARFRYYTAFDYWGQGTLVTVSS
VL: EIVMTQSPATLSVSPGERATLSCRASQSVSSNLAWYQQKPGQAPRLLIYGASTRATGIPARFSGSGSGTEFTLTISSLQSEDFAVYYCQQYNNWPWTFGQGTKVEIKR
notes: also called anti-IL-1RAP-C3-A3 mouse IgG2a LALA
B2: Anti-IL-1RAP-C8-RecC-ES-IgG1LALA (antibody, V domains shown)
VH: QVQLVQSGAEVKKPGSSVKVSCKASGSPAEPYAIQWVRQAPGQGLEWMGYIIPSLGGYDYAQKFQGRVTITADESTSTAYMELSSLRSEDTAVYYCARGQTLYESGRQFDIWGQGTLVTVSS
VL: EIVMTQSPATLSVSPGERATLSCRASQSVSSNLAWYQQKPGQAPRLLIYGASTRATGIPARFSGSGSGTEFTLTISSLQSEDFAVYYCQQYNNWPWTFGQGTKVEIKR
notes: also called ISB 880-C8-recC-ES

Columns and labels:
[1] = biological target: T1, Mouse IL-1RAP, membrane-bound on NIH-3T3 cells (mouse, UniProt Q61730 21-570); experiment: cell-based or functional assay
T1 sequence (looked up): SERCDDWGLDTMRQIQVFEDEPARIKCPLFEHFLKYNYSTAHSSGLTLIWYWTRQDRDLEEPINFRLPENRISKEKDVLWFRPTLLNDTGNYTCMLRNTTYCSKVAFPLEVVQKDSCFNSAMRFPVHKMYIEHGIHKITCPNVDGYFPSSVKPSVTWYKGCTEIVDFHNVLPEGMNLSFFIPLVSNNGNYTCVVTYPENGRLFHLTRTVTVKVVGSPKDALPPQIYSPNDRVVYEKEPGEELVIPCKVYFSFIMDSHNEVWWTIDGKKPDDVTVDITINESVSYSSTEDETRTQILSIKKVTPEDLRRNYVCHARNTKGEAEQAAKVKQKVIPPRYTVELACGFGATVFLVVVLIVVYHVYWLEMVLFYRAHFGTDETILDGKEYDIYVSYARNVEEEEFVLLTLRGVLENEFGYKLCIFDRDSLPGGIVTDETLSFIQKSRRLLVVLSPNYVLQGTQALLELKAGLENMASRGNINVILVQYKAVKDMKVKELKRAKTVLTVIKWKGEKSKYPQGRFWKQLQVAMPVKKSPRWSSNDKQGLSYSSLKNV

[2] = biological target: T1, Mouse IL-1RAP, membrane-bound on …; experiment: flow cytometry on NIH-3T3 cells, nonlinear sigmoidal regression
Protocol: In brief, cells were harvested, counted, and plated at 50′000 cells/well in a 96-well round-bottom plate. The plate was centrifuged at 350 g for 3 minutes and the cells were resuspended in […] of FACS® buffer (PBS (1×)+2.5% FCS+2 mM EDTA+0.05% NaN₃) containing various concentrations (ranging from 20 to 0.0001 μg/ml) of either anti-mouse IL-1RAP_candidate_1 or Isotype control_2 antibodies. Stained cells were incubated for 30 minutes at 4° C., washed twice with FACS® buffer at 350 g for 3 min and resuspended in 100 μl of a monoclonal anti-mouse IgG PE-Cyanine7 secondary antibody (Biolegend, 407114) diluted 1/200 in FACS® buffer. Cells were then washed twice, and resuspended in 200 μl of FACS® buffer containing SYTOX® Green dead cell stain (THERMO FISHER […]®, S34860) and samples were acquired on a CYTOFLEX® instruments (Beckman Coulter). The cells were gated based on size on FSC vs SSC and analysed for PE-Cyanine7-geometric mean (geomean) fluorescence intensity using FLOWJO® software. Finally, relative geomean fluorescence intensity was calculated by subtracting fluorescence of anti-mouse IL-1RAP_candidate_1 per fluorescence of Isotype control_2. As depicted in FIG. 11, anti-mouse IL-1RAP_candidate_1 antibody recognizes membrane-bound IL-1RAP expressed on NIH-3T3 cell line. […] Each data point is a measurement for a given cell line. […]

[3] = biological target: T2, Human IL-1RAP, membrane-bound on human cells (HaCaT, dermal fibroblasts, neutrophils, PBMC, whole blood) (human, UniProt Q9NPH3 21-570); experiment: flow cytometry on human neutrophils, nonlinear sigmoidal regression
T2 construct: Endogenous protein on cells
T2 sequence: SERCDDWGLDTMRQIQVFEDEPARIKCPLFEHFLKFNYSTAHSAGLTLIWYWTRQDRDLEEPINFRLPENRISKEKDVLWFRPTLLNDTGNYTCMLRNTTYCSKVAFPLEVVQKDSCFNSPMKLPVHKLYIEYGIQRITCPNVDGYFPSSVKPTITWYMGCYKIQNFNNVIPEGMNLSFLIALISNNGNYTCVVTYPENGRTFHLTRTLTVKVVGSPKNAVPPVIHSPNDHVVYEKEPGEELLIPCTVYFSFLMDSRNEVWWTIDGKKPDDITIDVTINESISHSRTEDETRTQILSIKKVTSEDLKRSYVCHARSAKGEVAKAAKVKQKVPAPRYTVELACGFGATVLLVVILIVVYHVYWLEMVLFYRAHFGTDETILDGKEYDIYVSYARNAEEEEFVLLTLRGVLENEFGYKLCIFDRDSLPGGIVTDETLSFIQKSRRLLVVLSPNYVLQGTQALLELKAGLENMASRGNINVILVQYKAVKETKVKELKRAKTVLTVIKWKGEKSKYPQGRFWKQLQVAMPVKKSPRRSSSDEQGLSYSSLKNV
Protocol: In brief, cells were harvested, counted, and plated at 50,000 cells/well in a 96-well round-bottom plate. The plate was centrifuged at 350 g for 3 minutes and the cells were resuspended in 50 μl of FACS® buffer (PBS (1×)+2.5% FCS+2 mM EDTA+0.05% NaN₃) containing various concentrations (ranging from 50 to 0.00003 μg/ml) of either anti-human IL-1RAP_candidate_1 or Isotype control_5 antibodies. Stained cells were incubated for 30 minutes at 4° C., washed twice with FACS® buffer at 350 g for 3 min and resuspended in […] of a monoclonal anti-human IgG PE-Cyanine7 secondary antibody (Biolegend, 409316) diluted 1/200 in FACS® buffer. Cells were then washed twice and resuspended in 200 μl of FACS® buffer containing SYTOX® Green dead cell stain (THERMO FISHER […]®, S34860) and samples were acquired on a CYTOFLEX® instruments (Beckman Coulter). The cells were gated based on size on FSC vs SSC and analyzed for PE-Cyanine7-geometric mean (geomean) fluorescence intensity using FLOWJO® software. Finally, relative geomean fluorescence intensity was calculated by subtracting fluorescence of anti-human IL-1RAP_candidate_1 per fluorescence of Isotype control_5. As depicted in FIGS. 6A, 6B, 6C, 6D, and 6E, anti-human IL-1RAP_candidate_1 antibody recognizes membrane-bound IL-1RAP expressed on HaCaT cell line and all primary cells. Multiple independent experiments were performed using multiple donors. […]

Row | Binder | hIL-33-stimulated NIH-3T3, mIL-6 release, EC50 of inhibition [1] [nM] | mIL-1b-stimulated NIH-3T3, mIL-6 release, EC50 of inhibition [1] [nM] | mIL-36s-stimulated NIH-3T3, mCXCL-1 release, EC50 of inhibition [1] [nM] | Kd [2] [nM] | Kd [3] [nM]
1 | B1 | 1.02 | 3.14 | 1.68 | 1.15 | –
2 | B2 | – | – | – | – | 1.67
